The source of these data is publication doi:10.1101/2021.04.12.439584 (bioRxiv, 2021).

This assay addresses Rabbit skeletal muscle actin (rabbit, UniProt P68135 1-377). In words: co-sedimentation.

B1: LmForminA FH2 domain (695aa-1092aa) (domain or fragment)
chain: ASGAAAPMLNSSTTRNVPINGAVGDSDDAIFKAARPIELTAGARDKLLALFPKAAPKHVIEEDEATSRVQRILDVNRDRNVGIVLKFIRLPIQQIEASVRTFDTLTLGEERISGLLKIIPTSDDFEAIARAQKEHGGPWKRAEEQQLPQAVRFFLMTQRIDHYAERIHAWSLRYELHGRLEYLEQKLSKADKAIDATFASPSLPDLLYFLLEVSNFLNAGSRFQGAKGFPITQLPQIMDFKTTDGKGTLLQYVAEILDTVNPHLQAISSELMPAVDEGRDIDVASIEQELKKLRGRLQKCKHLIEQLKNDVRWTNVLGKFIYRSLPELERVEKLAESINGKAERLQEFLCEKKETFSLNEVLRVLSNFCKRYEQEREKQRLRQERQDRMEDNKQRRQS
B1 displayed a Kd of 1840 nM.

B2: LmForminB FH2 domain (714aa-1149aa) (domain or fragment)
chain: KPKPQYTGPRLKTFFWKKILKPSGIWAASDTDDVRRAVIDESFMLKLFKLKAVAQPSAAEGAAEKSEQERRSQLRSNVFTGQRLQNMGIALKRVQVPVEVLCKALITCDSAVLPPERREMLTAALPTTEDVTALTAEKQAGRSVWTEVETYLYTAATTVKDVRERLQLWTAAEELEDTVQSISSLLSSVDAAVCAITHRNGRFARMMRIILAFGNHLNRGTPHADAEGFRLESLNQLNFVKSSDGKTTVLMALVVSLMDSGRGRSERGGGTTSAPGADNDDDDVRNALRFVEDVSCVRAVANSPLQDMGQQVSQLNFTLQRMRRVVEEAKDTKAWYDKRLPSVKAEEVPDALPGLLREAVDRYLATVGQIALRYQQLRDDVSAMMATYGEDPNADETVIWGYVLQFSKDVQRCVDTVAAVHLTKRRLMGMPEATEQ
The molecule B2 gave a dissociation constant Kd of 200 nM.

The Kd is the concentration at which binding is half-saturated. Lower therefore signals tighter binding.
